Assays:
ChlI [1] = biological target: T1, ChlI (Nostoc sp. PCC 7120 = FACHB-418, UniProt P58571); assay: cryo-EM structure of hexamers under turnover; format: binding; settings: ADP formed from 10 mM ATP, 50 mM MgCl2, pH 7.5; nucleotide pocket at monomer interfaces
T1 construct: full length, N-terminal His6 tag (kept), pET15b, E. coli LOBSTR; approximately 40 kDa; ATP-induced hexamer (also pentamer); residues 1-13 and 354-374 not modelled

ChlI [2] = biological target: T1, ChlI; assay: cryo-EM structure of hexamers under turnover; malachite green ATPase assay; format: binding; settings: 10 mM ATP, 50 mM MgCl2, pH 7.5; nucleotide pocket at monomer interfaces; hydrolysis at 37 °C
[3] = biological target: the molecule itself; assay: cryo-EM structure; 0.5 mg/mL ChlI with 10 mM ATP, 50 mM MgCl2, 0.05% LMNG, 1 mM DTT; no symmetry applied
[4] = biological target: the molecule itself; assay: mass photometry; ChlI incubated at 0.5 mg/mL in Tris buffer with 10 mM ADP and 50 mM MgCl2; diluted before measurement
[5] = biological target: the molecule itself; assay: mass photometry; ChlI incubated at 0.5 mg/mL in Tris buffer (20 mM Tris, 200 mM NaCl, pH 7.5) alone or with 50 mM MgCl2, no nucleotide; diluted before measurement

For `Nc1ncnc2c1ncn2[C@@H]1O[C@H](COP(=O)(O)OP(=O)(O)O)[C@@H](O)[C@H]1O` [ADP], the “cryo-EM structure of hexamers under turnover” value (ChlI [1]) was “conformation B has ATP bound in four monomers and ADP in two”.

`Nc1ncnc2c1ncn2[C@@H]1O[C@H](COP(=O)(O)OP(=O)(O)OP(=O)(O)O)[C@@H](O)[C@H]1O` [ATP] was tested, and the “cryo-EM structure of hexamers under turnover; malachite green ATPase assay” value (ChlI [2]) was “Conformation A is characterized by ATP molecules bound in five monomers and ADP in one”.

B1: Nostoc sp. PCC 7120 ChlI, motor (AAA+) subunit of magnesium chelatase (enzyme, UniProt P58571 1-374, looked up)
chain: MTPTAQTTASARRVVFPFTAIVGQEEMKLALLLNVIDPKIGGVMIMGDRGTGKSTTIRALADLLPEIPVVANDPFNSDPSDPDLMSDEVRQKSGTGAEIPIEFKKVQMVDLPLGATEDRVCGTIDIEKALSEGVKAFEPGLLAKANRGILYVDEVNLLDDHLVDVLLDSAASGWNTVEREGISIRHPARFVLVGSGNPEEGELRPQLLDRFGMHAEIHTVKEPALRVQIVEQRSEFDQNPPTFLEKYNPEQTALQKKIVEAQKLLPEVKLDYDLRVKISEVCSELDVDGLRGDIVTNRAAKALTAYEGRTEVTVDDIRRVITLCLRHRLRKDPLESIDSGYKVEKVFARIFGVELLEDDSSQKNGAGQIKTGVR
notes: Magnesium chelatase subunit ChlI of Nostoc sp; PCC 7120, gene all0152, amplified from genomic DNA; The printed forward primer places ATG and six His codons before codon 2 (ACT CCA ACA ...); the reverse primer includes the stop codon; Model building counts residues 1-374; Oligomeric state depends on the nucleotide (monomers/dimers without; pentamers and hexamers with ATP and MgCl2); also called …
With B1 the “stoichiometry N” value [3] was 5, the “stoichiometry N” value [4] was 6 and the “stoichiometry N” value [5] was 2.
